± gives the standard deviation of the averaged measurements.
Test system: ATP
Experiment: switch fluorescence ratio, 500 uM ATP over buffer (Cy3 cluster intensity, sum of 5 cycles each) (fold (ratio)); higher = stronger signal-on switching upon ATP binding; sequences stand for … in TCGTCGGCAGCGTCAGATGTGTATAAGAGACAGTTTTTTTTTTTTTTTTTTTTTTTTT…TC
Conditions: aptamer strand: ATP DNA aptamer (quencher-CACCTGGGGGAGTATTGCGGAGGAAGG + anchor), 100 nM annealed; ATP concentration: 500 uM
Procedure, shortened: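 After annealing to 100 nM quencher-labelled ATP aptamer, Cy3-labelled switching-strand clusters on a modified Illumina MiSeq flow-cell were imaged in selection buffer. A second image followed after 15 min with 500 uM ATP at 22 °C, and five such buffer/ATP cycles were done, each separated by NaOH stripping and re-annealing. The fluorescence ratio, averaged per switch-domain sequence, is summed target-cycle over summed buffer-cycle Cy3 intensity per cluster, with clusters outside 100-1000 RFU excluded.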
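Note: ATP exposure 15 min at 22 °C before imaging.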

Sequence	switch fluorescence ratio
ACAGTAGGA	1.06 ± 0.013
GAAGCTAGAA	1.52 ± 0.3
CAATGGGGGG	1.02 ± 0.03
TCCAGGGCTT	1.06 ± 0.013
TGTGCTAAGT	0.985 ± 0.026
AATAATGCGG	0.9969 ± 0.0071
TAGGTTTGCG	0.994 ± 0.053
ATTATTGGTC	0.99 ± 0.029
GAGTGGGATG	0.9633 ± 0.0035
TAGAATACTT	0.996 ± 0.016
TTTTGGCTAA	1.01 ± 0.022
GCATTTGAAG	0.953 ± 0.05
GACCACTATC	1.1 ± 0.02
ATGAAAAGTT	0.993 ± 0.011
CGCTTATCCT	1.1 ± 0.038
ATGAGGGGGA	0.997 ± 0.026
CGTTATATTC	1.08 ± 0.031
TAAAATGAGG	0.987 ± 0.043
CCATCGCCGG	1 ± 0.081
GCAGCAGACG	1.2 ± 0.076
GGCATTTGAC	1.02 ± 0.006
CTATCACAGG	2.01 ± 0.08
GGTGTAATAG	1.04 ± 0.036
GGGAGGATTT	0.987 ± 0.013
AACCCGGATT	0.9958 ± 0.0035

Sequence	switch fluorescence ratio
TGTTTTTAAG	0.99 ± 0.022
TTTTTTGGTG	1.02 ± 0.036
ACGGGACGCA	1.089 ± 0.0019
GGTCAAGTGG	1 ± 0.02
AATATGTTCT	1.02 ± 0.014
TATTTTGAAA	0.992 ± 0.027
TTTTGTGTTG	0.996 ± 0.013
TTTTAGCAAC	1.2325 ± 0.0007
TCGTATACGG	0.963 ± 0.044
TCCGCAGAG	6.2 ± 0.49
TTAAGTCTAT	0.9889 ± 0.0078
GCACTATAGG	0.999 ± 0.011
TAATTGAAGA	0.971 ± 0.012
CGATGGGTCG	1 ± 0.066
CGGTTGAATG	0.98841 ± 0.00073
TCACTTGAGC	1.011 ± 0.0091
GAGATTGGGT	1.001 ± 0.0077
GGGTGTAGCC	1.04 ± 0.037
GGGGTACAGG	1.005 ± 0.0055
TATTATGTGG	0.961 ± 0.01
AGAGAGATCC	1.02 ± 0.058
ATTAAACCGG	0.997 ± 0.024
ATCATTTTTA	1.01 ± 0.02
ACGTTGATTC	1.03 ± 0.047
GAGGAGGCCA	0.9828 ± 0.0053

Sequence	switch fluorescence ratio
GGAATCGGAA	1.02 ± 0.034
TTGAAGTGGG	1.03 ± 0.014
ACTGGGTTGG	0.9922 ± 0.0074
TGTGGTTTTT	1.01 ± 0.031
TCAAGTATCT	1.02 ± 0.041
TAGAAGGTTG	0.972 ± 0.018
CTTACGGAGG	1.01 ± 0.015
GTAGTACAAG	0.986 ± 0.026
ATGATGGTTT	1.02 ± 0.032
TCTATTCGGG	0.9484 ± 0.0029
GGCTGATGCA	0.938 ± 0.034
GCTGCTTAGC	1.02 ± 0.018
TTGTTTAAGA	1.03 ± 0.082
GTGGCTTGGG	1.02 ± 0.018
GCTGGGGTTT	0.996 ± 0.043
TTTGGTTTGA	1 ± 0.046
GGGCTATGTA	0.993 ± 0.0095
ATTATTAACG	0.993 ± 0.033
TTTGCGGAAT	1.05 ± 0.027
GGCAGGGGGG	1.04 ± 0.056
TTTATGTCCG	1.04 ± 0.042
GTGGGGAGCT	1.03 ± 0.061
CAGAGAAAGT	0.973 ± 0.038
CCAAGGGGCG	0.987 ± 0.0077
ATTTCAGTAG	1.016 ± 0.0019

Sequence	switch fluorescence ratio
GTCAACTGAG	1.05 ± 0.04
TTAATCTGTA	0.99 ± 0.068
ACTAGATTGA	1.01 ± 0.028
AATTCAGCCA	0.9878 ± 0.0057
AAACATTTTG	1.02 ± 0.036
TTTTTCTAAT	1.03 ± 0.071
TGCGGGGGTC	1.04 ± 0.088
GATTTAAGAT	1.01 ± 0.029
GTTATTTACT	1.024 ± 0.0033
TCAGGGGATT	1.02 ± 0.031
GTTATGAGTT	0.975 ± 0.029
GGGGTCGTGT	0.992 ± 0.023
GCTTATATAT	0.98542 ± 0.00086
GGTCAAGTTG	0.961 ± 0.019
GTAAATAGTC	1.03 ± 0.065
ATCCGCGGTG	1.18 ± 0.075
ATACTCTTAT	1.03 ± 0.04
AAGCGGGCAG	1 ± 0.02
TCTGAGCAAG	2.47 ± 0.25
GTGGTCTTGA	0.981 ± 0.028
TTTTGACTGT	0.966 ± 0.015
TGCTAAAGGG	0.984 ± 0.036
GTTCAAATCA	0.997 ± 0.047
CGTGAGCTAA	1.41 ± 0.19
TTTGTATTTT	0.992 ± 0.026

Sequence	switch fluorescence ratio
TGGGATCCAT	0.972 ± 0.015
ATTTGCAACT	0.994 ± 0.026
TCGTTAGATG	0.989 ± 0.023
AGAACTGAGA	0.998 ± 0.077
CGGTTGATCT	1.09 ± 0.13
AGGGAGCGGC	1.11 ± 0.035
GGTTAGGGGT	1.08 ± 0.24
ATATCGACGT	1 ± 0.013
TGAAGTTTTG	1.02 ± 0.027
ATGTGGGATT	0.965 ± 0.013
CCGTTGGTGG	0.983 ± 0.024
AGGGGAATAT	1.03 ± 0.017
GGGGCATGCA	0.9897 ± 0.0081
TTTCGGTTGT	1 ± 0.022
ATCAAGGGGG	0.992 ± 0.034
AGGAAACTTA	0.988 ± 0.0076
GGTGACTGGG	0.903 ± 0.042
TCAGGGTCCG	0.961 ± 0.017
TGGGCTTCAT	0.998 ± 0.028
CACCAGAGCT	1.09 ± 0.026
TCTAGTGTCG	1.03 ± 0.11
CGTGGAGTCG	0.989 ± 0.1
TGGGGTCAGC	1.001 ± 0.0097
CCAGTGTAGA	1.01 ± 0.0052
GGTTTATGAA	0.999 ± 0.018

Sequence	switch fluorescence ratio
TCGAATAGAT	0.958 ± 0.04
GTGGTACTGG	0.9683 ± 0.0066
CCAGTGGCGA	1.16 ± 0.039
TGGGTCTTTT	1.01 ± 0.054
AAGCGGGGTG	1.06 ± 0.063
AAGGGATTAA	1.01 ± 0.016
TGTCTATAGT	0.986 ± 0.036
AGGTCGTGTT	0.992 ± 0.01
GTGTTAGTTA	1.01 ± 0.011
CAGTTGTTGC	0.984 ± 0.023
TTGAGGGGTT	0.979 ± 0.0086
CATGCGCGGA	1.147 ± 0.0013
GAGTTATTTA	0.982 ± 0.027
ACTTCTAATT	1.01 ± 0.038
TAATCCTTTG	1.01 ± 0.048
ATTAAAGGAT	0.995 ± 0.033
TCCTTTTTTA	1.01 ± 0.015
TTTTTAACGC	1.3 ± 0.29
CTACTGGGGA	1.05 ± 0.036
AGCGACCGTT	1.032 ± 0.0078
TAATGGGTCC	0.99 ± 0.019
AGTTTGATGA	0.989 ± 0.028
AGTATATAGG	0.986 ± 0.018
GTGGGCCGAG	1.021 ± 0.0076
GATTCGCGGC	1.16 ± 0.02

Sequence	switch fluorescence ratio
TTAGGCACAA	1.03 ± 0.038
GTCATAGGTG	1.28 ± 0.087
TAGTGATGGT	0.973 ± 0.029
TGGACCTGAA	1.1 ± 0.038
GCCGGGGCAG	1.01 ± 0.033
TAAGTATCGC	1.03 ± 0.036
AAGTGATGGG	0.988 ± 0.045
TTTTTAGTTT	0.987 ± 0.028
TAGTCTGTTC	1.01 ± 0.045
CGGATGGGGC	1 ± 0.042
TGACCGAAGT	1.043 ± 0.0028
GAGGCAAGGT	1.65 ± 0.092
GGGACGATTT	0.995 ± 0.017
TCTAGTGGTT	1 ± 0.019
GGGGTTCAAA	0.997 ± 0.016
CGGGCGGGAC	1.59 ± 0.021
ATGTTGAAGC	0.9619 ± 0.0078
ATAGGGAAGT	1 ± 0.017
TTTCTATACG	1.02 ± 0.031
AGAGGGGCGG	1 ± 0.016
CTGAGTTTGG	1.07 ± 0.061
GGGGTGAGTG	1.02 ± 0.045
TCTTTCAAGT	0.994 ± 0.011
TGATAAAGGT	0.997 ± 0.015
CGGGCGCAGT	1.02 ± 0.043

Sequence	switch fluorescence ratio
AAAGCTGAAT	0.992 ± 0.0057
TTGAATCGAC	1.08 ± 0.042
AGACTAGTCG	0.972 ± 0.047
ATTAGACTTG	1.01 ± 0.065
GATGAAGGGA	0.979 ± 0.013
CGGGGAGTCG	0.945 ± 0.023
GAGGGGATTG	0.986 ± 0.047
GCCGGGATGT	1.02 ± 0.052
CATCAGGCGG	1.02 ± 0.015
TTAGTAGTTT	0.976 ± 0.015
AGGGTTAGCT	0.991 ± 0.02
TTTAGTGGGG	0.97 ± 0.01
CTATGAATGG	0.975 ± 0.057
TAATTTGAAT	1.028 ± 0.0063
GCAGGCGTCA	1.04 ± 0.015
CACGTATCTC	1.2 ± 0.05
ACATACTGCG	1.323 ± 0.0038
TTGCGATTTT	0.993 ± 0.028
CAGTGGGCGT	1.04 ± 0.026
GTTTGTAGGG	0.988 ± 0.037
GAGCACGTAT	1.03 ± 0.063
TATAAAGGGC	1.01 ± 0.054
ATCAATATGT	0.996 ± 0.029
TCCGAGTGAG	1.13 ± 0.058
AAACCTATGG	0.986 ± 0.055
